Measured values reported in the DeepSol protein solubility set.

Test: soluble on expression in E. coli; label from the status in PepcDB or PDB records

Row | Sequence | soluble on expression in E. coli
1 | MSMLSMDGIVAGGGSSSGGGERSFVLEQKMFNTGPQNKALPTVQSSGSSSNHAPIVGESPLGTVSSTMATGDTGRVGNVTYMSSGMLGATQFMPQNSSHPSTSVMMQQVPPQNGGATRSSPTEMQQCMQAMSEDSIEMRDYNSGVHHMHPHQMQMQQQQQHHQQQYNMSYHNHQQQMQQMHYHQQQQQYQQQQAQHHQMYAPQIQQQQQQPQQQSQQQSAQQPQQSSAALQHVNESSNLSSAGSISDREPEQHGGTPQRPTAPQSSTATDKKTRKRRKAGPTEDQATPKQERKITEFMKVGGEVASGNSVARCLLTEYHQNQGSPKRQPAVQQNGSNSYDSQQQQPQMNQHEMQNSYWGVATPSLGVNNRGTPTPTQQQHYSSDSNSNSNQSPPGQGNQSGRMVRTIDEETQTDSSLSQANPQNADEVAKMNRIIEDHRRQIEELNSKNSLERRKNEASKETIKRLLIDKNQIERKALRDKTAADSPRIGCFKTTRTGDSFRDQWVDGWAFAEMDKKTEQINAERNEIASASALLKKRKPLGIGKEPKRPQAVNSQNDSNGMQPSTSSNTNGDDAIFRRPEEPKEIQYQEYIELDEIYKLRREHLRKEETDLSMEKERLEKEKQHHVRELKRASNESASQFNDHRLLHKRYLMLNLLGKGGFSEVWKAFDIEENRYVACKIHHVNKDWKEEKKANYVKHAMREKDIHKSLDHCRIVKQYDLLTIDNHSFCTVLEYVPGNDLDFYLKQNRSISEKEARSIIMQVVSALVYLNEKSTPIIHYDLKPANILLESGNTSGAIKITDFGLSKIMEGESDDHDLGIELTSQFAGTYWYLPPETFIVPPPKITCKVDVWSIGVIFYQCIYGKKPFGNDLTQQKILEYNTIINAREVSFPSKPQVSSAAQDFIRRCLQYRKEDRADVFELAKHELFRPRGAIRASVAGSVSSPSIPRSPSVNREDDNM | not soluble
2 | MGSDKIHHHHHHMLHYTKEDLLELGAEITTREIYQQPDVWREAFEFYQAKREEIAAFLQEIADKHDYIKVILTGAGTSAYVGDTLLPYFKEVYDERKWNFNAIATTDIVANPATYLKKDVATVLVSFARSGNSPESLATVDLAKSLVDELYQVTITCAADGKLALQAHGDDRNLLLLQPAVSNDAGFAMTSSFTSMMLTTLLVFDPTEFAVKSERFEVVSSLARKVLDKAEDVKELVDLDFNRVIYLGAGPFFGLAHEAQLKILELTAGQVATMYESPVGFRHGPKSLINDNTVVLVFGTTTDYTRKYDLDLVREVAGDQIARRVVLLSDQAFGLENVKEVALGCGGVLNDIYRVFPYIVYAQLFALLTSLKVENKPDTPSPTGTVNRVVQGVIIHEYQK | not soluble
3 | MIVNDSVVIHASRDIAADAAGNISVTTADLKVSVMLRVADKPERATAQLVFRALSEVEAFKMRVADEVERLQHSFEQDFETRHRELDQEVARAAEDTIAHRLLERREYVNLRAIERNDDNIILRVTGGVWVGTELYLLFEIQNRDSTPYHLDRVRVVGAGEERAGAVAFEDRTYPEGGSMGSIASGQRGRGIVAVRNARQLAGQPVRLIVSEARERRAVSVGDIRWR | not soluble
4 | MSLVTLGEGFEKARLTRFLEKFGGNEGSQFLYLKDYGHFYYQEEGEDQVLFGFQMKFNKCFVLADPIGQREKWTAATLAFMDQADLLGYQLVFYRISEEYVMNLHDCGFEFMKVGEEGLIQFDEPSTVNQTAWTETVTEKIAAEAADFQFEFYPETISDALYQELERVSADWSRNQKERYFIGGRLDPEYLKCSSVGLVRQKQTVIGFITGKEMEKGKSISYDLLRIRSDAPAFTREYLFTHFIETYQQQGYQLIDIGMAPLANVGESKYSFLKERFVNIFYKYSYQIYAFQDTRKRKEQYVTSWQPRYFAYPKRTSVLFAFVQLSLLITKGRHQSVSLVEEAMTEIEGHHHHHH | soluble
5 | GNFGWSSYLTYSLNRNKVVELLRNYEDPYTHELTSLDRIDMGGTSMYKMILTEGGSIGDIYVNTLRTDEHGAIYVHPSDQVVVTQPDEFVKAGNSAPKYNLGWGNTFSYKGLSLGFLFTARVGGVVVSQTQATMDAYGSSKATAIARDNGGAIVNGRPIGAEDYYTKIGGAGAQGGIGSMYTYSATNVRLAELSLGYDIPINKYVDWIKGLNVSFIGKNLFFLYRKAPFDPELTASTGTYFQGIDMFMSPSLRNLGFSVKVNF | not soluble
6 | MSSSEGNSDASAPGTPVKSSTPSSRGSSPDSPKKQEPSKKRAILNESDDDDDSRPAPRQLSDSSDDNIHPRGGGEKSSPGAGGGLFGDLSGSSDDDSDREGKPKESNTRARLSDSDAESRGSLNDLQGIVMANPDEIDEDEKAKEHVHDTEMVTGRVTLEYAADPPHFVRMPNFLSVATHPFDPQHYEEDEDDEQAKLDDEGRTRLKLRVENTLRWRVRKDENGKEIRESNAKIVKWDDGTMSLYLGNEIFEVSLVPLNSNNLPHLYVKQPTLMSAQAVLTHRMTFRPHSTDSQTHRKVTLNMADRSRKNAQVKVMDDVGQNPEITRRENARKEEESLRAHIRRTQMVRNNFKVRGPRYAGQYSDDEDMPTSSRKGKKKEAPIIGASSESEDDHADTTKKSGSDSDSDEEYRKRKQQQKKQIVTSDEESD | not soluble
7 | KSITITTPYFVPSEILLHTLRTTAHRGVEVKLILPKKNDSLMVNWASKSFFETLLKAGVQIHEFNGGLLHTKSVVIDESHCIIGTVNLDMRSFWLNFEVSLIVDDPEFTKQLSWVLDGYLEQSTQVCFDTWRHRSWGNRFTERFFSMFSPLL | not soluble
8 | SNTPSAEADWSPGLELHPDYKTWGPEQVCSFLRRGGFEEPVLLKNIRENEITGALLPCLDESRFENLGVSSLGERKKLLSYIQRLVQIHVDTMKVI | soluble
9 | MSVTKLNNGKWQARVSYKDDDGNYKSVTHLEKRKTDAVEWETKTKNALLEGADLSRSTESLKHYFLDWIRIYKTDGVSRHTHELYMGNWRHIAAYFKDRPMSAIKRPDYQKFLNEFGRSHGIATSHKLHQQVHTAIKDAVADGILKRDFAYKAHVTGRPPKPVEEKYLTLSDYKKLRKYLIKTADYDHMTMLMMLFQLETGTRFEEAAGLTWDNLDLNNGIVHIKQQWDARRQTFRPTKGNGQADGDITIGPAYCRFMRSYRSTQKDYLELHEMKNPKNLVFWSKLGKIVGNGNANEELGRICNRLKINKVTTHAMRHTHASILILNHESLPYVQHRLRHQKLETTVNTYVHLIEEENGVSDKKATELMDEGF | not soluble
10 | SDSAFANLDAAGFLQIWQHFDADDNGYIEGKELDDFFRHMLKKLQPKDKITDERVQQIKKSFMSAYDATFDGRLQIEELANMILPQEENFLLIFRREAPLDNSVEFMKIWRKYDADSSGYISAAELKNFLKDLFLQHKKKIPPNKLDEYTDAMMKIFDKNKDGRLDLNDLARILALQENFLLQFKMDASSQVERKRDFEKIFAHYDVSRTGALEGPEVDGFVKDMMELVRPSISGGDLDKFRECLLTHCDMNKDGKIQKSELALCLGLKHKP | soluble
11 | MSMAMSQSNRELVVDFLSYKLSQKGYSWSQFSDVEENRTEAPEGTESEMETPSAINGNPSWHLADSPAVNGATGHSSSLDAREVIPMAAVKQALREAGDEFELRYRRAFSDLTSQLHITPGTAYQSFEQVVNELFRDGVNWGRIVAFFSFGGALCVESVDKEMQVLVSRIAAWMATYLNDHLEPWIQENGGWDTFVELYGNNAAAESRKGQERLEHHHHHH | soluble
12 | MSLTKTLIVNAHPDFRNAAHYSVQLEQAFLQLFQTRFPNDTVDVLNLYDTVIPQATVPELLGIWEKQAQHVNLSIEEQRLFAINQQLLQQFKAHHRIVIAMPLHNFNVPARLKDYIDNILVARETFRYTENGSVGLMTDNYRVMLLQASGSIYTRNDRYTPMEFSRLYLDKMFTEIMGFDRFEIVRAQGLQTNGVAVSQALKQAKMDLKAAFERFYDEGHHHHHH | soluble
13 | MAISVFDMFKIGIGPSSSHTVGPMRAGALFVTELRNQNRLHSVERIEVRLYGSLSATGIGHGSDRATVMGLMGEWPDQIDPSQVNQRIDALRADNQLMLAGEQAITFVWERDMCLLDESLPYHPNGMTLCAYGKTGEVHEQTYYSVGGGFVIDAEQAASGV | not soluble
14 | MSLGMKSNEYNKGNYEAHKAYYAGTYEYGTDYDVEDDLYSLEFDDELLNDELEYLEDIGEPFYYEDLDNDFDNTLENQVEKDTYAALENKLRKYISKYNCYFGIYFVDLESGKEFGINDTEEFFAASTFKIPLNLYVYDMIRKGMLDPMTSLEYTEEDFEGGTGIIWNNESFGKTFTIKELLRLSIVYSDNVAVNMLLRCVGKANVKEYMRRLGGVVVDDGKNVSCPRDMAMYLKEVYELSENGDPWGRELVQNMINTKFYDRLPVLLPKNLKIAHKTGNYTGVVHDVGIVYAEKPYIVVVMTKNVKNGQSANKAIANISKMIYDYVVKQSGKDEGHHHHHH | soluble
15 | SDDKAFTKELDQWVEQLNECKQLNENQVRTLCEKAKEILTKESNVQEVRCPVTVCGDVHGQFHDLMELFRIGGKSPDTNYLFMGDYVDRGYYSVETVTLLVALKVRYPERITILRGNHESRQITQVYGFYDECLRKYGNANVWKYFTDLFDYLPLTALVDGQIFCLHGGLSPSIDTLDHISPRGAGYTFGQDISETFNHANGLTLVSRAHQLVMEGYNWCHDRNVVTIFSAPNYCYRCGNQAAIMELDDTLKYSFLQFDPAPRRGEPHVTRRTPDYFL | soluble
16 | MGSDKIHHHHHHMRDMVPRLTKSYEASSQPIASIRSSVLSVVVGALEATGVSTDHLLAQHGLSRLTLDDPYNPVSLKNYVAFFEDAARMSSQPMLGIRLGNAIKAEDLGPVGVLYTMMQTLRSAIVRFSHFFPALQGSTKLGLSVRGDATWLEYQIEDQTIWPRRQDTEFTLALICALTRSRLGRGWAPEEIHFEHSAPTNGRDMAHFFGAVIRFDQPINRMLIRTEDLDLPFASANPAAIAIIEQHLNDLIGDGVVPAFEDAVLQAIMRCMKRGEVTLELVASRLGIGPRTLQRRLAATGRTFREIVQQQRHGTATVLLKDERIALGVVAGNLGYADTATMSRAFKTWTGQSPRAYSKKNRREAR | not soluble
17 | MNSFKTRDVQVAVEAVEKEKIEFIPLRRTLRYLIVGIDPGATTAIAALDLRGELVDMKSRKGWSPAEVIEFISSLGKPVVVSTDKSSPPEFVSKIRASFNAVLYTPKEDMSVEKKRILTSKYSTSNDLEHHHHHH | not soluble
18 | RHRCIGLTVETKPDWFFEREIDEALAYGTTKVELGVQNIDDRILAINNRGHTVADIARSTQLARDAGLKIVYHIMPGMYGSSFEKDLKSFDLMINDERFKPDMLKIYPTLVTQGTGLYNLWKNGKYRPYTTAETVDLIVEFMRRMPDWIRIQRIQR | not soluble
19 | GINLTPEEKFEVFGDFDPDQYEEEVRERWGNTDAYRQSKEKTASYTKEDWQRIQDEADELTRRFVALMDAGEPADSEGAMDAAEDHRQGIARNHYDCGYEMHTCLGEMYVSDERFTRNIDAAKPGLAAYMRDAILANAVRHTP | soluble
20 | GPGSMTERLSLSRDRINVLLLEGISQTAVEYFKSSGYTNVTHLPKALDKADLIKAISSAHIIGIRSRTQLTEEIFAAANRLIAVGCFSVGTNQVELKAARKRGIPVFNAPFSNTRSVAELVIGEIIMLMRRIFPRSVSAHAGGWEKTAIGSREVRGKTLGIVGYGNIGSQVGNLAESLGMTVRYYDTSDKLQYGNVKPAASLDELLKTSDVVSLHVPSSKSTSKLITEAKLRKMKKGAFLINNARGSDVDLEALAKVLQEGHLAGAAIDVFPVEPASNGERFSTPLQGLENVILTPHIGGSTEEAQERIGTEVTRKLVEYSDVGSTVGAVNFPQVQLPPRPTGTRFMHVHENRPGILNSLMNVFSHHHINIASQFLQTDGEVGYLVMEADGVGEASDAVLQEIREIPGTIRARLLY | soluble
21 | MAHHHHHHMDFQNRVGHKTGSGMPLSREDINQERRERLKQLALENIDITKDPYILKNNVGMFECKLCLTLHNNESSYLCHTQGKKHQMNLAQRLLKEKNEMTTNRLNKPVSEPRKIVKIGKPRYDVTRVRNKKNQLGILFELSFPNIKENTKPKFRFMSSFEQKIEAPDKKYQYLLFAAEPYETIAFKIPNIDIDENEGFYYKWFDKKKIFVMQIHFQNAFPPGHVNLREHSNFLSSTNRW | not soluble
